A short description of this data set: label from the status in PepcDB records.

For “MAMAVPVSARPQSPAEGFYAINNQFQTNGPKGFSEIKILANEDMFLRMDLPGVPDEGGLSVYHNRSQETVVVFAKAPKVHTHDSTERRYQTMTGIGCSCCAISSITTHMSDGVFRVILSKTRIDPHRSPCTDPALTGPVLQPHPLAFPQPTMAYESKQLPNGKLFVRADMPGVPKENFTVSVTNGRVKVTGQAPAVSHDSSGRFYSGDVAMLSTPVDIPSRRIKTIAKNGVIRLLIPPF”, the protein production entry was “failed”. With “MAMSVKTISPIEAHRLVTGGRAVLVDVRERHEIAREHIDGAIELPLTGFKHGDLGAAHGRKAIFFCHSGGRTRMYAGQIDAKARGVCEPYVLGGGILAWRRAGFPTVQGPKPPSLFQRLFGRKPAD” the entry was “failed”; with “MANAVVAIAGSSGLIGSALTAALRAADHTVLRIVRRAPANSEELHWNPESGEFDPHALTDVDAVVNLCGVNIAQRRWSGAFKQSLRDSRITPTEVLSAAVADAGVATLINASAVGYYGNTKDRVVDENDSAGTGFLAQLCVDWETATRPAQQSGARVVLARTGVVLSPAGGMLRRMRPLFSVGLGARLGSGRQYMSWISLEDEVRALQFAIAQPNLSGPVNLTGPAPVTNAEFTTAFGRAVNRPTPLMLPSVAVRAAFGEFADEGLLIGQRAIPSALERAGFQFHHNTIGEALGYATTRPG”, “failed”; with “MANHKPEIVITYCTQCQWLLRAAWLAQELLSTFADDLGRVALEPGTGGIFRITCNGVQIWERKADGGFPEAKVLKQRVRDQVDPQRDLGHNDR”, “not failed”. For the sequence “MANIAVQRIKREFKEVLKSEETTKNQIKVDLVDENFTELRGEIAGPPDTPYEGGRYQLEIKIPETYPFNPPKVRFITKIWHPNISSVTGAICLDILKDQWAAAMTLRTVLLSLQALLAAAEPDDPQDAVVANQYKQNPEMFKQTARLWAHVYAGAPVSSPEYTKKIENLCAMGFDRNAVIVALSSKSWDVETATELLLSN”, the protein production entry is “not failed”. With “MANLKVGDVLEDRYRIETPIARGGMSTVYRCLDLRLGRSMALKVMEEDFVDDPIFRQRFRREARSMAQLNHPNLVNVYDFSATDGLVYLVMELITGGTLRELLAERGPMPPHAAVGVMRGVLTGLAAAHRAGMVHRDIKPDNVLINSDHQVKLSDFGLVRAAHAGQSQDNQIVGTVAYLSPEQVEGGEIGPASDVYSAGIVLFELLTGTTPFSGEDDLDHAYARLTEVVPAPSSLIDGVPSLIDELVATATSINPEDRFDDSGEFLSALEDVATELSLPAFRVPVPVNSAANRANAQVPDAQPTDMFTTHIPKTPEPDHTAIIPVASANETSILPAQNMAQNMAQNPLQPPEPDFAPEPPPDTALNIQDQELARADEPEINTVSNRSKLKLTLWSIFVVAVIAAVAVGGWWFGSGRYGEIPQVLGMDEVQAVAVVEEAGFVAVAEPQYDNEVPTGSIIGTEPSFGERLPRGEDVSVLVSQGRPVVPDLSEDRSLSTVREELEQRTFVWVDGPGEYSDDVPEGQVVSFTPSSGTQLDVGETVQIHLSRGPAPVEIPDVSGMGVDQATRVLERAGLSVERTEEGFDAETPNGDVYGTSPKVSTEVKRGTSVVLQVSNAISVPDVVGMTKDEATAALAEEGLVVASTSIIPGEAASSADAVVTVEPESGSRVDPAHPQVSLGLAGEIQVPSVVGRKVSDARSILEEAGLTLTTDADDNDRIYSQTPRARSEVSVGGEVTVRAF” the entry was “failed”.

For the origin of these results see a protein production outcome set (Wang et al. 2014).
